Assays:
[1] = Hydrodynamic properties of SPIONs by dynamic light scattering; type: physicochemical; details: medium PBS; for HDR Z-average (hydrodynamic size): dynamic light scattering
Protocol: Hydrodynamic properties of SPIONs were measured after each conjugation step to monitor colloidal stability (Table 2).

miR-376b = assay: Flag immunoprecipitation of AGO2 and its domains, miRNA level by Taqman QPCR; type: binding; details: flag tagged proteins overexpressed in HEK293T cells, immunoprecipitated with flag beads
Excerpt: The miRNA is anchored in AGO2 protein and makes several kinks and turns along the binding groove (Elkayam et al. Cell. 2012. 150:100-110). A binding pocket composed of residues from PAZ and PIWI domains as previously observed interacts with miRNA (Boland et al. EMBO Rep. 2010. 11:522-527; Lingel et al. Nat Struct Mol Biol. 2004. 11:576-577; Schirle et al. Science. 2014. 346:608-613; Wang et al. Nature. 2008. 456:209-213). To determine which domain of AGO2 protein have the key role in miRNA binding affinity, flag tagged AGO2 protein and its domains, PAZ and PIWI, were overexpressed in HEK293T cells in the presence or absence of miR-376b overexpression and they immunoprecipitated with flag beads. […] It can be concluded that each domain of AGO2 protein is essential for the highest binding affinity (FIG. 10).

| Substance | HDR Z-average (hydrodynamic size) [1] [nm] | PDI [1] | Zeta Potential [1] [mV] | miRNA binding affinity (miR-376b) (miR-376b) |
| --- | --- | --- | --- | --- |
| SPION/AGO2/PEG-MI: SPION/AGO2 reacted with NH2-PEG-Mal (2000 Da) linker | 30 | 0.59 | −21 | – |
| PAZ: flag tagged AGO2 fragment, aa1-480 | – | – | – | partial role |
| full length AGO2 protein: flag tagged full length Argonaute-2 protein overexpressed in HEK293T cells | – | – | – | greater affinity |
| SPION/AGO2: AGO2 protein covalently attached to SPION/PAA via amide bond (EDC/NHS) | 20 | 0.43 | −23 | – |

Reference: patent US12318456B2, “Therapeutic nanoparticles containing argonaute for microRNA delivery and compositions and methods using same” (KOC UNIVERSITESI, priority 2018, dated 2025)
